Measurements reported in patent US8008547B2, “Glyphosate-N-acetyltransferase (GAT) genes” (E.I. duPont de Nemours, priority 2000, dated 2011).

Experiment: Standard protocol for determination of kcat and KM (continuous spectrophotometric assay, Acetyl CoA hydrolysis at 235 nm)
Assay type: biochemical
Settings: purified protein, about 23° C., 0.2 mM acetyl CoA; for Kcat: 20 mM HEPES pH 6.8, 10% ethylene glycol; for Km: pH 6.8, glyphosate 0.125 to 10 mM
In short: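 KM from initial rates over 0.125–10 mM glyphosate, fitted by Lineweaver-Burke transformation of Michaelis-Menten; kcat/KM computed as kcat divided by KM. Continuous spectrophotometric read of acetyl-CoA hydrolysis at 235 nm.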

Molecule | Kcat [s⁻¹] | Km [µM]
SEQ ID NO: 311: GAT polypeptide (protein, 14_12H6, GAT polypeptide) MIEVKPINAEDTYEIRHRILRPNQPLEACKYETDLLGGAFHLGGYYRGKLISIASFHQAEHPELEGQKQYQLRGMATLEEYREQKAGSTLIRHAEELLRKKGADLLWCNARTSASGYYKKLGFSEQGEVYDIPPTGPHILMYKKLT | 1.52 | 900
SEQ ID NO: 318: GAT polypeptide (protein, 14_6D4, GAT polypeptide) MIEVKPINAEDTYEIRHRILRPNQPLEACKYETDLLGGTFHLGGYYRGKLISIASFNQAEHPELEGQKQYQLRGMATLEGYREQKAGSTLIRHAEALLRKKGADLLWCNARTSASGYYKKLGFSEQGEVYDTPPVGPHILMYKKLT | 4.27 | 1000
SEQ ID NO: 317: GAT polypeptide (protein, 14_6B10, GAT polypeptide) MIEVKPINAEDTYEIRHRILRPNQPLEACKYETDLLGGTFHLGGYYRGKLISIASFHQAEHPELEGQKQYQLRGMATLEGYREQKAGSTLIRHAEELLRKKGADLLWCNARTSASGYYKKLGFSEQGGVYDMPPVGPHILMYKKLT | 2.245 | 1400
SEQ ID NO: 328: GAT polypeptide (protein, 15_11H3, GAT polypeptide) MIEVKPINAEDTYEIRHRILRPNQPLEACKYETDLLRGAFHLGGYYRGKLISIASFHQAEHPELEGQKQYQLRGMATLEGYREQKAGSTLIRHAEALLRKKGADLLWCNARTSASGYYKKLGFSEQGEVYDIPPTGPHILMYKKLT | 1.03 | 1000
SEQ ID NO: 263: GAT polypeptide (protein, 13_10F6, GAT polypeptide) MIEVKPINAEDTYEIRHRILRPNQPLEACKYETDLLRGTFHLGGYYRGKLISIASFHQAEHPELEGQKQYQLRGMATLEGYREQKAGSTLIRHAEELLRKKGADLLWCNARTSASGYYKKLGFSEQGEVYDIPPVGPHILMYKKLT | 0.81 | 1300
SEQ ID NO: 316: GAT polypeptide (protein, 14_6A8, GAT polypeptide) MIEVKPINAEDTYEIRHRILRPNQPLEACMYETDLLGGTFHLGGYYRGKLVSIASFNQAEHPELEGQKQYQLRGMATLEGYREQKAGSTLIRHAEELLRKKGADLLWCNARTSASGYYKKLGFSEQGEVYDTPPVGPHVLMYKKLT | 0.728 | 780
SEQ ID NO: 324: GAT polypeptide (protein, 14_8F7, GAT polypeptide) MIEVKPINAEDTYEIRHRILRPNQPLEACKYETDLLGGTFHLGGYYRGKLVSIASFHQAEHPELEGQKQYQLRGMATLEEYREQKAGSTLIRHAEALLRKKGADLLWCNARTSASGYYKKLGFSEQGEVYDIPPTGPHILMYKKLT | 1.51 | 1800
SEQ ID NO: 326: GAT polypeptide (protein, 15_10D6, GAT polypeptide) MIEVKPINAEDTYEIRHRILRPNQPLEACMYETDLLGGTFHLGGYYRGKLVSIASFHQAEHPELEGQKQYQLRGMATLEEYREQKAGSTLIRHAEELLRKKGADLLWCNARTSASGYYKKLGFSEQGEVYDIPPVGPHILMYKKLT | 1.12 | 1000
SEQ ID NO: 314: GAT polypeptide (protein, 14_3B2, GAT polypeptide) MIEVKPINAEDTYEIRHRILRPNQPLEACKYETDLLRGAFHLGGYYRGKLVSIASFHQAEHPELEGQKQYQLRGMATLEGYREQKAGSTLIRHAEALLRKKGADLLWCNARTSASGYYKKLGFSEQGGVYDIPPAGPHILMYKKLT | 1.14 | 850
SEQ ID NO: 327: GAT polypeptide (protein, 15_11F9, GAT polypeptide) MIEVKPINAEDTYEIRHRILRPNQPLEACKYETDLLRGAFHLGGYYRGKLVSIASFNQAEHPELEGQKQYQLRGMATLEGYREQKAGSTLIRHAEELLRRKGADLLWCNARTSASGYYKKLGFSEQGEVYDIPPTGPHILMYKKLT | 1.27 | 1000
SEQ ID NO: 323: GAT polypeptide (protein, 14_7H9, GAT polypeptide) MIEVKPINAEDTYEIRHRILRPNQPLEACKYETDLLGGTFHLGGYYRGKLVSIASFHQAEHPELEGQKQYQLRGMATLEGYREQKAGSTLIRHAEELLRKKGADLLWCNARTSASGYYKKLGFSEQGEVYDIPPVGPHILMYKKLT | 1.07 | 1300
SEQ ID NO: 332: GAT polypeptide (protein, 15_12D9, GAT polypeptide) MIEVKPINAEDTYEIRHRILRPNQPLEACKYETDLLRGTFHLGGYYRGKLVSIASFHQAEHPELEGQKQYQLRGMATLEEYREQKAGSTLIRHAEELLRKKGADLLWCNARTSASGYYKKLGFSEQGEVYDIPPVGPHILMYKKLT | 0.995 | 1400
SEQ ID NO: 319: GAT polypeptide (protein, 14_7A11, GAT polypeptide) MIEVKPINAEDTYEIRHRILRPNQPLEACKYETDLLRGAFHLGGYYRGKLVSIASFHQAEHPELEGLKQYQLRGMATLEGYREQKAGSTLIRHAEELLRKKGADLLWCNARTSASGYYKKLGFSEQGEVYDTPPTGPHILMYKKLT | 3.287 | 3700
SEQ ID NO: 329: GAT polypeptide (protein, 15_12A8, GAT polypeptide) MIEVKPINAEDTYEIRHRILRPNQPLEACKYETDLLGGTFHLGGYYRGKLISIASFHQAEHPELEGQKQYQLRGMATLEGYREQKAGSTLIRHAEALLRKKGADLLWCNARTSASGYYKKLGFSEQGEVYDIPPTGPHILMYKKLT | 1.28 | 1600
SEQ ID NO: 312: GAT polypeptide (protein, 14_2B6, GAT polypeptide) MIEVKPINAEDTYEIRHRILRPNQPLEACKYETDLLGGTFHLGGYYRGKLISIASFNQAEHPELEGQKQYQLRGMATLEGYREQKAGSTLIRHAEELLRKKGADLLWCNARTSASGYYKKLGFSEQGGVYDIPPVGPHILMYKKLT | 0.57 | 630
SEQ ID NO: 331: GAT polypeptide (protein, 15_12D8, GAT polypeptide) MIEVKPINAEDTYEIRHRILRPNQPLEACKYETDLLGGTFHLGGYYRGKLVSIASFHQAEHPELEGQKQYQLRGMATLEGYREQKAGSTLIRHAEELLRKKGADLLWCNARTSASGYYKKLGFSEQGKVYDIPPVGPHILMYKKLT | 0.995 | 1300
SEQ ID NO: 321: GAT polypeptide (protein, 14_7A9, GAT polypeptide) MIEVKPINAEDTYEIRHRILRPNQPLEACKYETDLLGGTFHLGGYYRGKLVSIASFHQAKHPELEGQKQYQLRGMATLEGYREQKAGSTLIRHAEELLRKKGADLLWCNARTSASGYYKKLGFSEQGEVYDTPPVGPHILMYKKLT | 4.098 | 3200
SEQ ID NO: 330: GAT polypeptide (protein, 15_12D6, GAT polypeptide) MIEVKPINAEDTYEIRHRILRPNQPLEACMYETDLLRGAFHLGGYYRGKLVSIASFHQAEHPELEGQKQYQLRGMATLEGYREQKAGSTLIRHAEELLRKKGADLLWCNARTSASGYYKKLGFSEQGEVYDTPPVGPHILMYKKLT | 2.477 | 740
SEQ ID NO: 325: GAT polypeptide (protein, 15_10C2, GAT polypeptide) MIEVKPINAEDTYEIRHRILRPNQPLEACKYETDLLRGAFHLGGYYRGKLVSIASFHQAEHPELEGQKQYQLRGMATLEGYREQKAGSTLIRHAEELLRKKGADLLWCNARTTASGYYKKLGFSEQGEVFDIPPTGPHILMYKKLT | 1.16 | 800
SEQ ID NO: 322: GAT polypeptide (protein, 14_7G1, GAT polypeptide) MIEVKPINAEDTYEIRHRILRPNQPLEACKYETDLLRGAFHLGGYYRGKLISIASFNQAEHPELEGQKQYQLRGMATLEEYREQKAGSTLIRHAEALLRKKGADLLWCNARTSASGYYKKLGFSEQGEVYDTPPVGPHILMYKKLT | 2.278 | 660
SEQ ID NO: 313: GAT polypeptide (protein, 14_2G11, GAT polypeptide) MIEVKPINAEDTYEIRHRILRPNQPLEACKYETDLLRGAFHLGGYYRGKLVSIASFHQAEHPELEGQKQYQLRGMATLEGYREQKAGSTLIRHAEELLRKKGADLLWCNARTSASGYYKKLGFSEQGEVYDIPPTGPHILMYKKLT | 1.16 | 1400
SEQ ID NO: 320: GAT polypeptide (protein, 14_7A1, GAT polypeptide) MIEVKPINAEDTYEIRHRILRPNQPLEACMYETDLLRGTFHLGGYYRGKLVSIASFHQAEHPELEGQKQYQLRGMATLEEYREQKAGSTLIRHAEELLRKKGADLLWCNARTSASGYYKKLGFSEQGEVYDTPPAGPHILMYKKLT | 2.597 | 1600
SEQ ID NO: 315: GAT polypeptide (protein, 14_4H8, GAT polypeptide) MIEVKPINAEDTYEIRHRILRPNQPLEACKYETDLLGSTFHLGGYYRGKLISIASFHQAEHPELEGQKQYQLRGMATLEGYREQKAGSTLIRHAEELLRKKGADLLWCNARTSASGYYKKLGFSEQGEVYDTPPVGPHILMYKKLT | 3.313 | 2000
